Assay results: publication PMC9785946, “Bioorthogonal Chemistry Approach for the Theranostics of GRPR-Expressing Cancers” (Pharmaceutics, 2022)
Values joined by “and” are separate entries in the source; they are usually repeats but may differ in a detail not shown here. Equal values may be shown once. Read-outs that look alike come from different tables or passages of the source.

How the values were obtained:
[1] = Method: The octanol–water partition coefficients (Po/w) of the radioconjugates (20 µL, typically 1 to 5 MBq) were determined by the “shake-flask” method, as previously described.
PC3 cells = assay: Cellular uptake, internalization and blocking assays in PC3 cells; format: cell-based, human; details: 37 °C
Method: The time-dependent accumulation of ^111In-conjugates in PC3 cells was evaluated according to a previously described procedure. Briefly, PC3 cells were incubated at 37 °C for 5 min to 4 h with about 7.4 kBq of the tested radioconjugates. To assess the surface binding, the cells were treated twice with glycine buffer (50 mM glycine-HCl/100 mM NaCl, pH 2.8). Then, the cells were lysed with NaOH 1 M (internalized radioconjugate). The activity in both cell surface-bound and internalized fractions was measured in a γ-counter and reported as a percentage of the total applied radioactivity. The total cellular uptake was calculated by the addition of the activities recovered from the surface binding and internalized fractions. Assays for each time point were performed in quadruplicate, and data were presented as average ± SD of typically three independent experiments.
To assess the specific GRPR-mediated cellular uptake and internalization of radioconjugates (receptor blocking studies), a similar study was performed in which cells were incubated with the [^111In]In-DOTA-Tz-TCO-PEG4-AR for 1, 2 and 4 h, with or without the GRPR agonist Tyr4-Bombesin (0.25 µg/0.5 mL/well).

[2] = Biodistribution of 111In-radioconjugates/radiocomplex in PC3 xenografts-bearing mice; format: in vivo, Balb/c-male nude mice; details: male, Balb/c nude, mouse, iv, total radioactivity; for tissue uptake at […]: 15 min p.i.
Description: (§1) Blood samples were taken by cardiac puncture at sacrifice.

[3] = test system: PC3 xenografts-bearing mice; assay: as above; format: in vivo, Balb/c-male nude mice
Description: as §1

[4] = tumor (PC3 xenograft), 1 h p.i., read-out: Tumor uptake
[5] = 15 min p.i., listed as [111In]In-DOTA-Tz-TCO-PEG4-AR
[6] = 1 h p.i., blocking (excess of agonist)

What does the source list for `CC(C)C[C@H](NC(=O)C[C@H](O)[C@H](CC(C)C)NC(=O)[C@H](Cc1c[nH]cn1)NC(=O)CNC(=O)[C@@H](NC(=O)[C@H](C)NC(=O)[C@H](Cc1c[nH]c2ccccc12)NC(=O)[C@H](CCC(N)=O)NC(=O)[C@@H](Cc1ccccc1)NC(=O)CCOCCOCCOCCOCCNC(=O)OC1CCCc2c(cnnc2-c2ccc(CNC(=O)CN3CCN(CC(=O)O)CCN(CC(=O)O)CCN(CC(=O)O)CC3)cc2)CC1)C(C)C)C(N)=O` (some centres unmarked) [[^111In]In-DOTA-Tz-TCO-PEG4-AR, metal not drawn]?
logP [1]: -1.2 ± 0.04; Distribution of cell-associated activity (surface-bound vs internalized) (PC3 cells): mainly bound to the cell membrane; Cellular uptake (PC3 cells; start of the assay): 17 % of the total activity applied per million cells; tissue uptake at 1 h ([2]; heart, 1 h p.i., read-out: Heart uptake): 0.815 %ID/g; dose excreted at 1 h ([2]; in vivo, 1 h p.i., read-out: Excretion): 74.8%; dose excreted at 24 h ([2]; in vivo, 24 h post-injection, mainly through the renal system, read-out: Injected activity excreted): 97%; tissue uptake at 1 h ([2]; intestine, 1 h p.i., read-out: Intestine uptake): 1.85 %ID/g; tissue uptake at […] ([2]; kidneys, read-out: Kidneys uptake): 15.4 ± 6.2 %ID/g; tissue uptake at 1 h ([2]; kidneys, 1 h p.i., read-out: Kidneys uptake): 5.33 %ID/g; tissue uptake at […] ([2]; liver, read-out: Liver uptake): 6 %ID/g; tissue uptake at 1 h ([2]; lungs, 1 h p.i., read-out: Lungs uptake): 1.61 %ID/g; tissue uptake at 1 h ([2]; muscle, 1 h p.i., read-out: Muscle uptake): 0.875 %ID/g; tissue uptake at 2 h ([2]; pancreas, 2 h p.i.): 11 %ID/g; tissue uptake at 1 h ([2]; pancreas, with excess of agonist (receptor blocking), 1 h p.i., blocking (excess of agonist), read-out: Pancreas uptake): 1.6 ± 0.6 %ID/g; tissue uptake at 1 h ([2]; stomach, 1 h p.i., read-out: Stomach uptake): 2.62 %ID/g; tissue uptake at 1 h [2, 4]: 9.57 %ID/g; tissue uptake at 1 h ([2]; tumor (PC3 xenograft), with excess of agonist (receptor blocking), 1 h p.i., blocking (excess of agonist), read-out: Tumor uptake): 4.4 ± 2 %ID/g; Blood uptake ([3]; 15 min p.i.): 6. 7 % I.D./g; Bone uptake ([3]; 15 min p.i.): 7. 2 % I.D./g; Excretion ([3]; 15 min p.i.): 17. % I.D.; Heart uptake ([3]; 15 min p.i.): 5. 4 % I.D./g; Intestine uptake ([3]; 15 min p.i.): 3. 6 % I.D./g; Lungs uptake ([3]; 15 min p.i.): 9. 6 % I.D./g; Muscle uptake ([3]; 15 min p.i.): 3. 8 % I.D./g; Pancreas uptake ([3]; 15 min p.i.): 25.2 ± 3 % I.D./g and 25.2 ± 0.2 % I.D./g; Spleen uptake ([3]; 15 min p.i.): 3. 6 % I.D./g; Stomach uptake ([3]; 15 min p.i.): 10. 6 % I.D./g; Tumor uptake ([3]; 15 min p.i.): 8.4 ± 0.5 % I.D./g; Kidneys uptake [3, 5]: 15. 4 % I.D./g; Pancreas uptake [3, 5]: 25. 2 % I.D./g; Tumor uptake [3, 5]: 8. 4 % I.D./g; Blood uptake ([3]; 1 h p.i.): 2. 62 % I.D./g; Bone uptake ([3]; 1 h p.i.): 0. 85 % I.D./g; Liver uptake ([3]; 1 h p.i.): 1. 15 % I.D./g; Pancreas uptake ([3]; 1 h p.i.): 13.9 ± 1.6 % I.D./g; Spleen uptake ([3]; 1 h p.i.): 1. 32 % I.D./g; Tumor uptake ([3]; 1 h p.i.): 9.6 ± 1.7 % I.D./g; Blood uptake [3, 6]: 3. 08 % I.D./g; Bone uptake [3, 6]: 1. 395 % I.D./g; Excretion [3, 6]: 51. % I.D.; Heart uptake [3, 6]: 1. 11 % I.D./g; Intestine uptake [3, 6]: 0. 995 % I.D./g; Kidneys uptake [3, 6]: 8. 435 % I.D./g; Liver uptake [3, 6]: 1. 63 % I.D./g; Lungs uptake [3, 6]: 2. 135 % I.D./g; Muscle uptake [3, 6]: 1. 755 % I.D./g; Pancreas uptake [3, 6]: 1. 685 % I.D./g; Spleen uptake [3, 6]: 0. 83 % I.D./g; Stomach uptake [3, 6]: 1. 16 % I.D./g; Tumor uptake [3, 6]: 4. 445 % I.D./g; Pancreas uptake ([3]; 1 h p.i., listed as [111In]In-DOTA-Tz-TCO-PEG4-AR): 13. 875 % I.D./g; Blood uptake ([3]; 2 h p.i.): 1. 7 % I.D./g; Bone uptake ([3]; 2 h p.i.): 0. 7 % I.D./g; Excretion ([3]; 2 h p.i.): 84. % I.D.; Heart uptake ([3]; 2 h p.i.): 0. 5 % I.D./g; Intestine uptake ([3]; 2 h p.i.): 1. 1 % I.D./g; Kidneys uptake ([3]; 2 h p.i.): 5. 4 % I.D./g; Liver uptake ([3]; 2 h p.i.): 1. 7 % I.D./g; Lungs uptake ([3]; 2 h p.i.): 1. 1 % I.D./g; Muscle uptake ([3]; 2 h p.i.): 0. 6 % I.D./g; Pancreas uptake ([3]; 2 h p.i.): 11 ± 2.5 % I.D./g; Spleen uptake ([3]; 2 h p.i.): 0. 6 % I.D./g; Stomach uptake ([3]; 2 h p.i.): 2. 1 % I.D./g; Tumor uptake ([3]; 2 h p.i.): 13.1 ± 1.7 % I.D./g; Tumor uptake ([3]; 2 h p.i., listed as [111In]In-DOTA-Tz-TCO-PEG4-AR): 13. 1 % I.D./g; Blood uptake ([3]; 24 h p.i.): 0. 16 % I.D./g; Bone uptake ([3]; 24 h p.i.): 0. 038 % I.D./g; Excretion ([3]; 24 h p.i.): 96. % I.D.; Heart uptake ([3]; 24 h p.i.): 0. 065 % I.D./g; Intestine uptake ([3]; 24 h p.i.): 0. 12 % I.D./g; Kidneys uptake ([3]; 24 h p.i.): 1. 17 % I.D./g; Liver uptake ([3]; 24 h p.i.): 0. 21 % I.D./g; Lungs uptake ([3]; 24 h p.i.): 0. 12 % I.D./g; Muscle uptake ([3]; 24 h p.i.): 0. 034 % I.D./g; Pancreas uptake ([3]; 24 h p.i.): 0. 14 % I.D./g; Spleen uptake ([3]; 24 h p.i.): 0. 065 % I.D./g; Stomach uptake ([3]; 24 h p.i.): 0. 09 % I.D./g; Tumor uptake ([3]; 24 h p.i.): 0. 76 % I.D./g

Which logP [1] does the source give for `CC(C)C[C@H](NC(=O)C[C@H](O)[C@H](CC(C)C)NC(=O)[C@H](Cc1c[nH]cn1)NC(=O)CNC(=O)[C@@H](NC(=O)[C@H](C)NC(=O)[C@H](Cc1c[nH]c2ccccc12)NC(=O)[C@H](CCC(N)=O)NC(=O)[C@@H](Cc1ccccc1)NC(=O)CN1CCC(NC(=O)OC2CCCc3c(cnnc3-c3ccc(CNC(=O)CN4CCN(CC(=O)O)CCN(CC(=O)O)CCN(CC(=O)O)CC4)cc3)CC2)CC1)C(C)C)C(N)=O` (some centres unmarked) [[^111In]In-DOTA-Tz-TCO-Pip-AR, metal not drawn] here?
The logP was -1.28 ± 0.01.

What about the “Distribution of cell-associated activity (surface-bound vs internalized)” value (PC3 cells) of the same compound?
The value was “almost all cell-associated activity corresponded to the membrane-bound fraction”.

And the Maximum cellular uptake (PC3 cells; 5 min to 4 h)?
The Maximum cellular uptake was “around 10 % of the total activity applied per million cells”.

What about the tissue uptake at 1 h ([2]; pancreas, 1 h p.i., read-out: Pancreas uptake) of the same compound?
The tissue uptake at 1 h was 2.8 ± 0.5 %ID/g.

What about the tissue uptake at 1 h [2, 4] of the same compound?
Its tissue uptake at 1 h is 3.2 ± 0.1 %ID/g.

What about the Blood uptake ([3]; 1 h p.i.) of the same compound?
Its Blood uptake is 2. 63 % I.D./g.

What about the Bone uptake ([3]; 1 h p.i.) of the same compound?
The Bone uptake was 1. 2 % I.D./g.

What about the Excretion ([3]; 1 h p.i.) of the same compound?
Its Excretion is 63. % I.D.

What about the Heart uptake ([3]; 1 h p.i.) of the same compound?
The Heart uptake was 1. 06 % I.D./g.

And the Intestine uptake ([3]; 1 h p.i.)?
The Intestine uptake was 0. 54 % I.D./g.

What about the Kidneys uptake ([3]; 1 h p.i.) of the same compound?
Its Kidneys uptake is 9. 04 % I.D./g.

And the Liver uptake ([3]; 1 h p.i.)?
Its Liver uptake is 3. 97 % I.D./g.

What about the Lungs uptake ([3]; 1 h p.i.) of the same compound?
Its Lungs uptake is 1. 74 % I.D./g.

What about the Muscle uptake ([3]; 1 h p.i.) of the same compound?
The Muscle uptake was 0. 64 % I.D./g.

And the Pancreas uptake ([3]; 1 h p.i.)?
The Pancreas uptake was 3. 24 % I.D./g.

What about the Spleen uptake ([3]; 1 h p.i.) of the same compound?
The Spleen uptake was 0. 98 % I.D./g.

And the Stomach uptake ([3]; 1 h p.i.)?
The Stomach uptake was 0. 48 % I.D./g.

What about the Tumor uptake ([3]; 1 h p.i.) of the same compound?
Its Tumor uptake is 2. 79 % I.D./g.

What about the Blood uptake [3, 6] of the same compound?
Its Blood uptake is 3. 11 % I.D./g.

And the Bone uptake [3, 6]?
Its Bone uptake is 0. 97 % I.D./g.

What about the Excretion [3, 6] of the same compound?
The Excretion was 60. % I.D.

And the Heart uptake [3, 6]?
Its Heart uptake is 0. 6 % I.D./g.

What about the Intestine uptake [3, 6] of the same compound?
Its Intestine uptake is 0. 4 % I.D./g.

What about the Kidneys uptake [3, 6] of the same compound?
Its Kidneys uptake is 7. 18 % I.D./g.

And the Liver uptake [3, 6]?
The Liver uptake was 3. 28 % I.D./g.

And the Lungs uptake [3, 6]?
Its Lungs uptake is 1. 44 % I.D./g.

What about the Muscle uptake [3, 6] of the same compound?
Its Muscle uptake is 0. 63 % I.D./g.

What about the Pancreas uptake [3, 6] of the same compound?
Its Pancreas uptake is 1. 67 % I.D./g.

What about the Spleen uptake [3, 6] of the same compound?
The Spleen uptake was 0. 74 % I.D./g.

What about the Stomach uptake [3, 6] of the same compound?
Its Stomach uptake is 0. 34 % I.D./g.

And the Tumor uptake [3, 6]?
Its Tumor uptake is 1. 38 % I.D./g.

What about the Blood uptake ([3]; 2 h p.i.) of the same compound?
Its Blood uptake is 0. 16 % I.D./g.

And the Bone uptake ([3]; 2 h p.i.)?
The Bone uptake was 0. 13 % I.D./g.

And the Excretion ([3]; 2 h p.i.)?
The Excretion was 91. % I.D.

What about the Heart uptake ([3]; 2 h p.i.) of the same compound?
Its Heart uptake is 0. 08 % I.D./g.

What about the Intestine uptake ([3]; 2 h p.i.) of the same compound?
The Intestine uptake was 0. 09 % I.D./g.

What about the Kidneys uptake ([3]; 2 h p.i.) of the same compound?
Its Kidneys uptake is 3. 09 % I.D./g.

What about the Liver uptake ([3]; 2 h p.i.) of the same compound?
Its Liver uptake is 1. 02 % I.D./g.

What about the Lungs uptake ([3]; 2 h p.i.) of the same compound?
The Lungs uptake was 0. 18 % I.D./g.

What about the Muscle uptake ([3]; 2 h p.i.) of the same compound?
The Muscle uptake was 0. 05 % I.D./g.

And the Pancreas uptake ([3]; 2 h p.i.)?
The Pancreas uptake was 0. 28 % I.D./g.

And the Spleen uptake ([3]; 2 h p.i.)?
The Spleen uptake was 0. 28 % I.D./g.

And the Stomach uptake ([3]; 2 h p.i.)?
The Stomach uptake was 0. 05 % I.D./g.

What about the Tumor uptake ([3]; 2 h p.i.) of the same compound?
The Tumor uptake was 1. 13 % I.D./g.
